Data as given in patent US20220153847A1 (Chugai, published 2022).

Legend:
[1] = molecular target: T1, HLA-DQ2.5 on HLA-DQ2.5-positive PBMC B cells (human, UniProt P01909 24-254; P01920 33-261); test: FACS, PBMC B cells; IC17=0%, DQN0139bb//IC17=100%
T1 construct: whole, on cells; also called HLA-DQ2.5+ PBMC B cell
T1 MHC II alpha: not shown
T1 MHC II beta: not shown

[2] = molecular target: T2, HLA-DQ2.5/gamma 2 gliadin peptide complex on Ba/F3 cells (human); test: FACS, Ba/F3 cells; IC17=0%, DQN0139bb//IC17=100%;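 also: flow cytometry binding of anti-HLA-DQ antibodies at 5 µg/mL, incubated 30 min at room temperature with Ba/F3 lines presenting HLA-DQ/peptide complexes; antibody tested at 5 microgram/mL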
T2 construct: whole, on cells; also called Ba/F3-HLA-DQ2.5/gamma 2 gliadin; HLA-DQ2.5/g2 gliadin

[3] = molecular target: T3, HLA-DQ2.5/BC hordein peptide complex on Ba/F3 cells (human); test: FACS, Ba/F3 cells; IC17=0%, DQN0139bb//IC17=100%;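 also: flow cytometry binding of anti-HLA-DQ antibodies at 5 µg/mL, incubated 30 min at room temperature with Ba/F3 lines presenting HLA-DQ/peptide complexes; antibody tested at 5 microgram/mL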
T3 construct: whole, on cells; also called Ba/F3-HLA-DQ2.5/BC hordein

HLA-DQ2.2 on Ba/F3 cells = molecular target: T4, HLA-DQ2.2 on Ba/F3 cells (human, UniProt P01909 24-216, limits assumed); test: FACS, Ba/F3 cells; IC17=0%, DQN0139bb//IC17=100%;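 also: flow cytometry binding of anti-HLA-DQ antibodies at 5 µg/mL, incubated 30 min at room temperature with Ba/F3 lines presenting HLA-DQ/peptide complexes; antibody tested at 5 microgram/mL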
T4 construct: whole, on cells; also called Ba/F3-HLA-DQ2.2
T4 MHC II alpha: not shown
T4 MHC II beta: not shown

[4] = molecular target: T5, HLA-DQ2.5/gamma 1 gliadin peptide complex on Ba/F3 cells (human); test: FACS, Ba/F3 cells; IC17=0%, DQN0139bb//IC17=100%;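 also: flow cytometry binding of anti-HLA-DQ antibodies at 5 µg/mL, incubated 30 min at room temperature with Ba/F3 lines presenting HLA-DQ/peptide complexes; antibody tested at 5 microgram/mL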
T5 construct: whole, on cells; also called Ba/F3-HLA-DQ2.5/gamma 1 gliadin; HLA-DQ2.5/g1 gliadin

[5] = molecular target: T6, HLA-DQ2.5/hordein 1 peptide complex on Ba/F3 cells (human); test: FACS, Ba/F3 cells; IC17=0%, DQN0139bb//IC17=100%
T6 construct: whole, on cells; also called Ba/F3-HLA-DQ2.5/hordein 1

[6] = molecular target: T7, HLA-DQ2.5/omega 1 gliadin peptide complex on Ba/F3 cells (human); test: FACS, Ba/F3 cells; IC17=0%, DQN0139bb//IC17=100%
T7 construct: whole, on cells; also called Ba/F3-HLA-DQ2.5/omega 1 gliadin; HLA-DQ2.5/w1 gliadin

[7] = molecular target: T8, HLA-DQ2.5/alpha 2 gliadin peptide complex on Ba/F3 cells (human); test: FACS, Ba/F3 cells; IC17=0%, DQN0139bb//IC17=100%
T8 construct: whole, on cells; also called Ba/F3-HLA-DQ2.5/alpha 2 gliadin; HLA-DQ2.5/a2 gliadin

[8] = molecular target: T9, HLA-DQ2.5/alpha 1b gliadin peptide complex on Ba/F3 cells (human); test: FACS, Ba/F3 cells; IC17=0%, DQN0139bb//IC17=100%
T9 construct: whole, on cells; also called Ba/F3-HLA-DQ2.5/alpha 1b gliadin; HLA-DQ2.5/a1b gliadin

[9] = molecular target: T10, HLA-DQ2.5/avenin 1 peptide complex on Ba/F3 cells (human); test: FACS, Ba/F3 cells; IC17=0%, DQN0139bb//IC17=100%
T10 construct: whole, on cells; also called Ba/F3-HLA-DQ2.5/avenin 1

[10] = molecular target: T11, HLA-DQ2.5/alpha 3 gliadin peptide complex on Ba/F3 cells (human); test: FACS, Ba/F3 cells; IC17=0%, DQN0139bb//IC17=100%
T11 construct: whole, on cells; also called Ba/F3-HLA-DQ2.5/alpha 3 gliadin; HLA-DQ2.5/a3 gliadin

[11] = molecular target: T12, HLA-DQ2.5/26mer gliadin peptide complex on Ba/F3 cells (human); test: FACS, Ba/F3 cells; IC17=0%, DQN0139bb//IC17=100%
T12 construct: whole, on cells; also called Ba/F3-HLA-DQ2.5/26mer gliadin

[12] = molecular target: T13, HLA-DQ2.5/secalin 2 peptide complex on Ba/F3 cells (human); test: FACS, Ba/F3 cells; IC17=0%, DQN0139bb//IC17=100%
T13 construct: whole, on cells; also called Ba/F3-HLA-DQ2.5/secalin 2

[13] = molecular target: T14, HLA-DQ2.5/omega 2 gliadin peptide complex on Ba/F3 cells (human); test: FACS, Ba/F3 cells; IC17=0%, DQN0139bb//IC17=100%
T14 construct: whole, on cells; also called Ba/F3-HLA-DQ2.5/omega 2 gliadin; HLA-DQ2.5/w2 gliadin

[14] = molecular target: T15, HLA-DQ2.5/secalin 1 peptide complex on Ba/F3 cells (human); test: FACS, Ba/F3 cells; IC17=0%, DQN0139bb//IC17=100%
T15 construct: whole, on cells; also called Ba/F3-HLA-DQ2.5/secalin 1

[15] = molecular target: T16, HLA-DQ2.5/hordein 2 peptide complex on Ba/F3 cells (human); test: FACS, Ba/F3 cells; IC17=0%, DQN0139bb//IC17=100%
T16 construct: whole, on cells; also called Ba/F3-HLA-DQ2.5/hordein 2

[16] = molecular target: T17, HLA-DQ2.5/14mer 1 peptide complex on Ba/F3 cells (human); test: FACS, Ba/F3 cells; IC17=0%, DQN0139bb//IC17=100%
T17 construct: whole, on cells; also called Ba/F3-HLA-DQ2.5/14mer 1

[17] = molecular target: T18, HLA-DQ2.5/alpha 1 gliadin peptide complex on Ba/F3 cells (human); test: FACS, Ba/F3 cells; IC17=0%, DQN0139bb//IC17=100%
T18 construct: whole, on cells; also called Ba/F3-HLA-DQ2.5/alpha 1 gliadin; HLA-DQ2.5/a1 gliadin

[18] = molecular target: T19, HLA-DQ2.5/gamma 4b gliadin peptide complex on Ba/F3 cells (human); test: FACS, Ba/F3 cells; IC17=0%, DQN0139bb//IC17=100%
T19 construct: whole, on cells; also called Ba/F3-HLA-DQ2.5/gamma 4b gliadin; HLA-DQ2.5/g4b gliadin

[19] = molecular target: T20, HLA-DQ2.5/avenin 3 peptide complex on Ba/F3 cells (human); test: FACS, Ba/F3 cells; IC17=0%, DQN0139bb//IC17=100%
T20 construct: whole, on cells; also called Ba/F3-HLA-DQ2.5/avenin 3

[20] = molecular target: T21, HLA-DQ2.5/avenin 2 peptide complex on Ba/F3 cells (human); test: FACS, Ba/F3 cells; IC17=0%, DQN0139bb//IC17=100%
T21 construct: whole, on cells; also called Ba/F3-HLA-DQ2.5/avenin 2

[21] = molecular target: DQ2.5/alpha 1b gliadin peptide on IHW9023 cells (human); test: cell-based or functional assay
DQ2.5/alpha 1b gliadin peptide on IHW9023 cells (human), sequence (peptide, as listed by the source): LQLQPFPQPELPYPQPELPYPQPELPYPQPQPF

[22] = molecular target: DQ2.5/omega 1 gliadin peptide on IHW9023 cells (human); test: cell-based or functional assay
[23] = molecular target: DQ2.5/omega 2 gliadin peptide on IHW9023 cells (human); test: cell-based or functional assay
[24] = molecular target: DQ2.5/alpha 2 gliadin peptide on IHW9023 cells (human); test: cell-based or functional assay
[25] = molecular target: DQ2.5/gamma 1 gliadin peptide on IHW9023 cells (human); test: cell-based or functional assay
[26] = molecular target: DQ2.5/alpha 1 gliadin peptide on IHW9023 cells (human); test: cell-based or functional assay
[27] = molecular target: DQ2.5/BC hordein peptide on IHW9023 cells (human); test: cell-based or functional assay

B1: DQN0344xx//DQN0429cc (bispecific antibody, human IgG1, kappa)
heavy 1: QSLEESGGGLVKPGGTLTLTCTASGFSFSSSYWMCWVRQAPGKGLEWVACVYGGSDTTYYASWTKGRFTISKGSSTTVALQVTSLTAADTATYFCARDPLNYYYYGELNLWGPGTLVTVSSASTKGPSVFPLAPSSKSTSGGTAALGCLVKDYFPEPVTVSWNSGALTSGVHTFPAVLQSSGLYSLSSVVTVPSSSLGTQTYICNVNHKPSNTKVDKRVEPKSCDKTHTCPPCPAPELRRGPSVFLFPPKPKDTLMISRTPEVTCVVVDVSHEDPEVKFNWYVDGVEVHNAKTKPREEQYNSTYRVVSVLTVLHQDWLNGKEYKCKVSNKALPAPIEKTISKAKGQPREPQVYTLPPSREEMTKNQVSLTCLVKGFYPSDIAVEWESNGQPENNYKTTPPYLDSDGSFFLYSKLTVDKSRWQQGNVFSCSVMHEALHNHYTQESLSLSP
light 1: AVVLTQTASPVSAAVGGTVTIRCQATENIYSGLAWYQQKPGQPPKVLIYYVSTLASGVPSRFKGSGSGTEYTLTISGVQCDDAATYYCQTYHDISNVTFGGGTKVEIKRTVAAPSVFIFPPSDEQLKSGTASVVCLLNNFYPREAKVQWKVDNALQSGNSQESVTEQDSKDCTYSLSSTLTLSKADYEKHKVYACEVTHQGLSSPVTKSFNRGEC
heavy 2: QEQLVESGGGLVQPEGSLTLTCTASGFSFSSSYYMCWVRQAPGKGLEWIGCIYTGSGSTDYATWVNGRFTISKTSSTTVTLQMTSLTVADTATYFCARDIGIDYNFWGPGTLVTVSSASTKGPSVFPLAPSSKSTSGGTAALGCLVKDYFPEPVTVSWNSGALTSGVHTFPAVLQSSGLYSLSSVVTVPSSSLGTQTYICNVNHKPSNTKVDKRVEPKSCDKTHTCPPCPAPELRRGPSVFLFPPKPKDTLMISRTPEVTCVVVDVSHEDPEVKFNWYVDGVEVHNAKTKPREEQYNSTYRVVSVLTVLHQDWLNGKEYKCKVSNKALPAPIEKTISKAKGQPREPQVYTLPPSRKEMTKNQVSLTCLVKGFYPSDIAVEWESNGQPENNYKTTPPYLDSDGSFFLYSKLTVDKSRWQQGNVFSCSVMHEALHNHYTQKSLSLSP
light 2: AFELTQTPSFVEARVGGTVTIKCQATQSISSYLNWYQQKPGQPPKLLIYYASTLASGVPSRFKGSGSGTEFTLTISGVECADAATYYCHYGISYVSFGGGTKVEIKRTVAAPSVFIFPPSDEQLKSGTASVVCLLNNFYPREAKVQWKVDNALQSGNSQESVTEQDSKDCTYSLSSTLTLSKADYEKHKVYACEVTHQGLSSPVTKSFNRGEC
% MFI [1]: 0.4% | % MFI [2]: 1.3% | % MFI [3]: 18.5% | % MFI (HLA-DQ2.2 on Ba/F3 cells): 0.8% | % MFI [4]: 16.9% | % MFI [5]: 20.3% | % MFI [6]: 43% | % MFI [7]: 58.7% | % MFI [8]: 64.6% | % MFI [9]: 14.2% | % MFI [10]: 18% | % MFI [11]: 30.7% | % MFI [12]: 43.3% | % MFI [13]: 19.3% | % MFI [14]: 37.8% | % MFI [15]: 90% | % MFI [16]: 19.4% | % MFI [17]: 63.1% | % MFI [18]: 6.2% | % MFI [19]: 19.6% | % MFI [20]: 18.3% | IC50, Jurkat NFAT-Luc T cell activation [21]: 0.171 µg/mL | IC50, Jurkat NFAT-Luc T cell activation [22]: 0.0397 µg/mL | IC50, Jurkat NFAT-Luc T cell activation [23]: 0.0146 µg/mL | IC50, Jurkat NFAT-Luc T cell activation [24]: 0.00196 µg/mL | IC50, Jurkat NFAT-Luc T cell activation [25]: 0.0947 µg/mL | IC50, Jurkat NFAT-Luc T cell activation [26]: 0.0498 µg/mL | IC50, Jurkat NFAT-Luc T cell activation [27]: 0.415 µg/mL
